# In paper PMC6614843 (2019):
# B1: NTD-XRCC1(1-151)-His (domain or fragment)
# chain: MPEIRLRHVVSCSSQDSTHCAENLLKADTYRKWRAAKAGEKTISVVLQLEKEEQIHSVDIGNDGSAFVEVLVGSSAGGAGEQDYEVLLVTSSFMSPSESRSGSNPNRVRMFGPDKLVRAAAEKRWDRVKIVCSQPYSKDSPFGLSFVRFHS
# Key:
# [1] = target: T1, Polβ(WT), purified recombinant (human, UniProt P06746 1-335); assay: SPR; mean of repeats
# [2] = target: T2, Polβ(T304I), purified recombinant (human, UniProt P06746 1-335, T304I); assay: SPR; mean of repeats
# [3] = target: T1, Polβ(WT), purified recombinant; assay: SPR; representative experiment
# [4] = target: T2, Polβ(T304I), purified recombinant; assay: SPR; representative experiment
binder,measurement,setting,value
B1,Kd,[1],534 nM
same,Kd,[2],3300 nM
same,Kd,[3],358 nM
same,Kd,[4],3650 nM
